Biological target: porcine dentin sialoprotein (DSP) (porcine)
Test: SDS-PAGE and Western blot under oxidizing

stoichiometry N: 2
Substance: porcine dentin sialoprotein (DSP) (natural protein)
